Data as given in article PMC7203880.
Where “and” joins values, the source holds several entries; their conditions need not be identical. Equal values may be shown once.

Molecular target: Slr0058 protein from Synechocystis sp. PCC 6803, His-tagged (Synechocystis sp. PCC 6803)
Experiment: SEC; Superose 6 Increase 10/300 GL on ÄKTAmicro; 100 mM KCl, 50 mM Tris-HCl pH 7.8, 5 mM MgCl2; 100 µl of Slr0058 at 0.313 mg/ml

With “Slr0058 protein from Synechocystis sp. PCC 6803, His-tagged (natural protein)” the stoichiometry N was 2 and 3.
